In patent US20150147342A1:
Values belong to the substance of their own block, whether it stands above or below them.

How the values were obtained:
[1] = target: wild-type human Ang-2 (hAng-2-WT) (human) (UniProt O15123); assay: SPR, peptibody captured on anti-human IgG, 25 C
[2] = target: wild-type human Ang-2 (hAng-2-WT) (human) (UniProt O15123); assay: SPR, peptibody captured on anti-human IgG, 25 C; remark: listed apart in the source
[3] = target: Full-length wild-type human Ang-1 (hAng-1-WT) (human) (UniProt Q15389); assay: SPR, peptibody captured on anti-human IgG, 25 C
[4] = target: wild-type human Ang-2 (hAng-2-WT) (human) (UniProt O15123); assay: SPR, peptibody captured
[5] = target: Monomeric fibrinogen-like domain of human Ang2 (hAng-2FD) (human) (UniProt O15123); assay: SPR, peptibody captured
[6] = target: Full-length wild-type human Ang-1 (hAng-1-WT) (human) (UniProt Q15389); assay: cell-based or functional assay
[7] = target: Monomeric fibrinogen-like domain of human Ang2 (hAng-2FD) (human) (UniProt O15123); assay: SPR, peptibody captured on anti-human IgG, 25 C, steady-state
[8] = target: wild-type human Ang-2 (hAng-2-WT) (human) (UniProt O15123); assay: SPR, peptibody captured on anti-human IgG, 37 C
[9] = target: Full-length wild-type human Ang-1 (hAng-1-WT) (human) (UniProt Q15389); assay: SPR, peptibody captured on anti-human IgG, 37 C
[10] = target: Full-length wild-type human Ang-1 (hAng-1-WT) (human) (UniProt Q15389); assay: SPR, peptibody captured on anti-human IgG, 25 C; remark: listed apart in the source
[11] = target: wild-type human Ang-2 (hAng-2-WT) (human) (UniProt O15123); assay: SPR, antibody captured on anti-human IgG, 25 C
[12] = target: Full-length wild-type human Ang-1 (hAng-1-WT) (human) (UniProt Q15389); assay: SPR, antibody captured on anti-human IgG, 25 C
[13] = target: Monomeric fibrinogen-like domain of human Ang2 (hAng-2FD) (human) (UniProt O15123); assay: SPR, antibody captured on anti-human IgG, 25 C
[14] = target: Monomeric fibrinogen-like domain of human Ang2 (hAng-2FD) (human) (UniProt O15123); assay: SPR, antibody captured on anti-human IgG, 37 C, steady-state
[15] = target: Dimeric Human Ang-2FD-mFc (human) (UniProt O15123); assay: SPR, antibody captured on anti-human kappa, 25 C
[16] = target: Dimeric fibrinogen-like domain of mouse (Mus musculus) Ang-2 conjugated to human IgG1 (mouse (Mus musculus)); assay: SPR, antibody captured on anti-human kappa, 25 C
[17] = target: Dimeric fibrinogen-like domain of monkey (Macca fascicularis) Ang-2 conjugated to human IgG1 (monkey (Macca fascicularis)); assay: SPR, antibody captured on anti-human kappa, 25 C
[18] = target: Dimeric Human Ang-2FD-mFc (human) (UniProt O15123); assay: SPR, antibody captured on anti-human kappa, 37 C
[19] = target: Dimeric fibrinogen-like domain of mouse (Mus musculus) Ang-2 conjugated to human IgG1 (mouse (Mus musculus)); assay: SPR, antibody captured on anti-human kappa, 37 C
[20] = target: Dimeric fibrinogen-like domain of monkey (Macca fascicularis) Ang-2 conjugated to human IgG1 (monkey (Macca fascicularis)); assay: SPR, antibody captured on anti-human kappa, 37 C
[21] = target: hAng-1-WT (human) (UniProt Q15389); assay: SPR, 1 uM blocker + 10 nM hAng-1-WT over hTie-2-mFc surface (competitor), 25 C; RU of Ang-1 bound to Tie-2
[22] = target: hAng-1-WT (human) (UniProt Q15389); assay: SPR, 1 uM blocker + 10 nM hAng-1-WT over hTie-2-mFc surface (competitor), 25 C

wild-type human Ang-2 (hAng-2-WT) (human), sequence (O15123 19-496 limits assumed): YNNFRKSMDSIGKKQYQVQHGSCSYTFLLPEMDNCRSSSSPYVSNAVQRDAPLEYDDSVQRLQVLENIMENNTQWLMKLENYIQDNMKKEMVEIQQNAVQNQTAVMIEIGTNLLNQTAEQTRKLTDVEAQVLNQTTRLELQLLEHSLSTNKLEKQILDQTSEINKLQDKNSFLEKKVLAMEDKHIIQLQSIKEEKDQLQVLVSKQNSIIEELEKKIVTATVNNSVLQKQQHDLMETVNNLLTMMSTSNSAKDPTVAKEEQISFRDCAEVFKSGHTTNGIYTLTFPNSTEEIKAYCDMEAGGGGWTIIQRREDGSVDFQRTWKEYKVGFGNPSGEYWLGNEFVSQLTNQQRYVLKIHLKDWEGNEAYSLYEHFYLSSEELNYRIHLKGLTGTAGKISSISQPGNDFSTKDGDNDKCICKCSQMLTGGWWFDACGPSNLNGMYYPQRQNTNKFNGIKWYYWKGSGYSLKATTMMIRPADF
Dimeric fibrinogen-like domain of mouse (Mus musculus) Ang-2 conjugated to human IgG1 (mouse (Mus musculus)), sequence (chain, as listed by the source limits assumed): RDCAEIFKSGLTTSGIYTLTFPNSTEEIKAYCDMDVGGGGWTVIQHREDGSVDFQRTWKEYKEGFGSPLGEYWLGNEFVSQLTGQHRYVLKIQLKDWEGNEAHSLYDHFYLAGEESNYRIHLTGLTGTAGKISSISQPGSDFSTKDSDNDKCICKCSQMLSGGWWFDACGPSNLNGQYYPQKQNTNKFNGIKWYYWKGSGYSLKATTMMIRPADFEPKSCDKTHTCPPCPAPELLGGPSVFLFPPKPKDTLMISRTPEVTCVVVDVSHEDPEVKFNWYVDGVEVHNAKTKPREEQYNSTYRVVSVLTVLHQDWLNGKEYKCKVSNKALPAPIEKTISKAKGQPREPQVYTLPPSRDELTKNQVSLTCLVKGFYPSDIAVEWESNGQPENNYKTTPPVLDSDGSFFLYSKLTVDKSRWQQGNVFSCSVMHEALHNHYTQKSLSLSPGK
Dimeric Human Ang-2FD-mFc (human), sequence (O15123 282-496 limits assumed): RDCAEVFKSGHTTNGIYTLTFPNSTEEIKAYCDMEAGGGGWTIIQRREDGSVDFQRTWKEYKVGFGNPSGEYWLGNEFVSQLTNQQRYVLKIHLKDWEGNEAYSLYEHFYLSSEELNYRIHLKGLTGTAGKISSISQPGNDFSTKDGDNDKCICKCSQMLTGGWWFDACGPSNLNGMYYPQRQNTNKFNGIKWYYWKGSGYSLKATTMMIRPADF
Monomeric fibrinogen-like domain of human Ang2 (hAng-2FD) (human), sequence (O15123 282-496 limits assumed): as above
Full-length wild-type human Ang-1 (hAng-1-WT) (human), sequence (Q15389 20-498 limits assumed): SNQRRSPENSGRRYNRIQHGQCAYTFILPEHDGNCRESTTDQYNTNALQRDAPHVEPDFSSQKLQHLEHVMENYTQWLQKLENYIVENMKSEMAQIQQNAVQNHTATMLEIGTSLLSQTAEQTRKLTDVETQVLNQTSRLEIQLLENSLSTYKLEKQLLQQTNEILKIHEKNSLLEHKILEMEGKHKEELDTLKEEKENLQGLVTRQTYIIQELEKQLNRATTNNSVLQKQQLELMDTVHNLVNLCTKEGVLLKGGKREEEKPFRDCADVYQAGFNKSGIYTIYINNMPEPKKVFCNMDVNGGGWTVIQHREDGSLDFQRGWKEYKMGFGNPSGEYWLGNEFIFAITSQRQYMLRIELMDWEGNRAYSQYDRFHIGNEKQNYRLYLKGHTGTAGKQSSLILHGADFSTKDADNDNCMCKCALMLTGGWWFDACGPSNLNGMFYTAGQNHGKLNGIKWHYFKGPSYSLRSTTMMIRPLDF
Dimeric fibrinogen-like domain of monkey (Macca fascicularis) Ang-2 conjugated to human IgG1 (monkey (Macca fascicularis)), sequence (chain, as listed by the source limits assumed): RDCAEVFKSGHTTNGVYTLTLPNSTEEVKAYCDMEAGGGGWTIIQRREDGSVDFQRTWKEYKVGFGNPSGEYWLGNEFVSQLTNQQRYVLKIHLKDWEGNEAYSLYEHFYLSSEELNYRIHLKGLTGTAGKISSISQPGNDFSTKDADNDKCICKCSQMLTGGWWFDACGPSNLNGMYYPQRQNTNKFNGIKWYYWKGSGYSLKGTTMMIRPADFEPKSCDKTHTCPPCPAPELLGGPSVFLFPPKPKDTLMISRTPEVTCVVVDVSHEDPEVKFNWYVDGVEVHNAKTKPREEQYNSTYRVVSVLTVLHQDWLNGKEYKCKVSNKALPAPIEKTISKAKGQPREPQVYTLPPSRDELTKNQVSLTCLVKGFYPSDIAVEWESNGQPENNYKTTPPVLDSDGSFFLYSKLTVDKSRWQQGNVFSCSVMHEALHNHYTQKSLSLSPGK
hAng-1-WT (human), sequence (Q15389 20-498 limits assumed): as the sequence (Q15389 20-498 limits assumed) above

Kd [1]: 0.652 nM
T1/2 [1]: 3.55 h
koff [1]: 5.41e-05 s⁻¹
kon [1]: 83000 M⁻¹ s⁻¹
Kd [2]: 0.0447 nM
T1/2 [2]: 5.58 h
koff [2]: 3.45e-05 s⁻¹
kon [2]: 773000 M⁻¹ s⁻¹
Kd [3]: 0.0782 nM
T1/2 [3]: 5.43 h
koff [3]: 3.54e-05 s⁻¹
kon [3]: 453000 M⁻¹ s⁻¹
Kd [4]: 0.0447 nM
T1/2 [4]: 5.58 h
Kd [5]: 90 nM
inhibition of Ang-1-induced Tie-2 phosphorylation in EA.hy926 cells (Western blot) [6]: 50 nM
Kd [7]: 90 nM
Kd [8]: 3.09 nM
T1/2 [8]: 1.65 h
koff [8]: 0.000117 s⁻¹
kon [8]: 37900 M⁻¹ s⁻¹
Kd [9]: 0.155 nM
T1/2 [9]: 4.43 h
koff [9]: 4.35e-05 s⁻¹
kon [9]: 281000 M⁻¹ s⁻¹
Kd [10]: 0.0826 nM
T1/2 [10]: 7.67 h
koff [10]: 2.51e-05 s⁻¹
kon [10]: 304000 M⁻¹ s⁻¹
Substance: Control II: peptibody that binds human Ang-2 having the amino acid sequence of 2XCon4(C) (Fc fusion)

Kd [11]: 0.0722 nM
T1/2 [11]: 0.7 h
koff [11]: 0.000274 s⁻¹
kon [11]: 3.8e+06 M⁻¹ s⁻¹
Kd [12]: 0.168 nM
T1/2 [12]: 1.75 h
koff [12]: 0.000111 s⁻¹
kon [12]: 660000 M⁻¹ s⁻¹
Kd [13]: 125 nM
T1/2 [13]: 19 s
koff [13]: 0.0356 s⁻¹
kon [13]: 284000 M⁻¹ s⁻¹
Kd [14]: 94 nM
inhibition of Ang-1-induced Tie-2 phosphorylation in EA.hy926 cells (Western blot) [6]: 100 nM
Kd [15]: 0.0127 nM
T1/2 [15]: 4.48 h
Kd [16]: 0.0402 nM
T1/2 [16]: 4.82 h
Kd [17]: 0.0155 nM
T1/2 [17]: 5.7 h
Kd [18]: 0.00991 nM
T1/2 [18]: 3.07 h
Kd [19]: 0.054 nM
T1/2 [19]: 1.98 h
Kd [20]: 0.0474 nM
T1/2 [20]: 1.78 h
Substance: Control IV: human anti-Ang-2 antibody with the variable regions of 3.19.3

RU (average) [21]: 169 RU
Percent of Negative Control Binding [22]: 100%
Substance: Negative Control (irrelevant peptibody) (Fc fusion)
